Test results published in patent US20070086998A1.

Columns and labels:
[1] = target: HLA-DR as expressed on the tumor cell line; assay: cell-based or functional assay
[2] = target: HLA-DR on LG-2 cells (human); assay: cell-based or functional assay

L243 (antibody), sequence (VH): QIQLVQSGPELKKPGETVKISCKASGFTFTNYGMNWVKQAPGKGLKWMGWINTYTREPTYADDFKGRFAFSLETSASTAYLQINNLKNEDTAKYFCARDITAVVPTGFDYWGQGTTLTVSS
L243 (antibody), sequence (VL): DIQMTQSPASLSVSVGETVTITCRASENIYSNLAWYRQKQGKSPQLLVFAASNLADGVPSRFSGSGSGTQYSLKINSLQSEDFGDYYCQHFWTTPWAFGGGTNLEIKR

For L243 (antibody), the % Killing by mAb; ARH-77 (DR 12); 200 nM, 4 h [1] was 88%, the % Killing by mAb; BJAB (DR 12,13); 200 nM, 4 h [1] was 53% and the % Killing by mAb; BONNA-12; 200 nM, 4 h [1] was 92%. The % Killing by mAb; DOHH-2 (DR 1,2); 200 nM, 4 h [1] was 29%, the % Killing by mAb; EOL-1; 200 nM, 4 h [1] was 22% and the % Killing by mAb; GRANTA-519 (DR 2,11); 200 nM, 4 h [1] was 83%. The % Killing by mAb; HC-1; 200 nM, 4 h [1] was 88%, the % Killing by mAb; HD-MY-Z; 200 nM, 4 h [1] was 35% and the % Killing by mAb; HDLM-2; 200 nM, 4 h [1] was 77%. For the same substance, the % Killing by mAb; KARPAS-299 (DR 1,2); 200 nM, 4 h [1] was 78%, the % Killing by mAb; KARPAS-422 (DR 2,4); 200 nM, 4 h [1] was 25% and the % Killing by mAb; KM-H2; 200 nM, 4 h [1] was 81%. The % Killing by mAb; L1236; 200 nM, 4 h [1] was 52%, the % Killing by mAb; L-363; 200 nM, 4 h [1] was 6% and the % Killing by mAb; L-428 (DR 12); 200 nM, 4 h [1] was 82%. The % Killing by mAb; LP-1; 200 nM, 4 h [1] was 12%, the % Killing by mAb; MHH-CALL-4 (DR 1,2); 200 nM, 4 h [1] was 35% and the % Killing by mAb; MHH-PREB-1; 200 nM, 4 h [1] was 3%. The % Killing by mAb; MN-60 (DR 10,13); 200 nM, 4 h [1] was 46%, the % Killing by mAb; NALM-1 (DR 1,4); 200 nM, 4 h [1] was 44% and the % Killing by mAb; RAJI (DR 10,17); 200 nM, 4 h [1] was 69%. It also gave a % Killing by mAb; RPMI-8226; 200 nM, 4 h [1] of 6%, a % Killing by mAb; SR-786 (DR 1,2); 200 nM, 4 h [1] of 3% and a % Killing by mAb; LG-2 (DR 1,1); 200 nM, 4 h [2] of 79%.
